Laboratory results taken from patent US20200165312A1, “COSMETIC COMPOSITION FOR IMPROVING SKIN CONDITIONS COMPRISING FUSION PROTEIN INCLUDING SKIN PENETRATION ENHANCING PEPTIDE” (LG HOUSEHOLD & HEALTH CARE LTD., priority 2017, published 2020).

B1: T-VEGF: SEQ ID NO: 1 peptide C-terminal linked to N-terminal of VEGF via GG linker (protein)
chain: NGSLNTHLAPILGGAPMAEGGGQNHHEVVKFMDVYQRSYCHPIETLVDIFQEYPDEIEYIFKPSCVPLMRCGGCCNDEGLECVPTEESNITMQIMRIKPHQGQHIGEMSFLQHNKCECRPKKDRARQENPCGPCSERRKHLFVQDPQTCKCSCKNTDSRCKARQLELNERTCRCDKPRR
modifications: Synthetic Fusion protein of T-VEGF
B2: KGF: keratinocyte growth factor having an amino acid sequence of SEQ ID NO: 44 (protein)
chain: CNDMTPEQMATNVNCSSPERHTRSYDYMEGGDIRVRRLFCRTQWYLRIDKRGKVKGTQEMKNNYNIMEIRTVAVGIVAIKGVESEFYLAMNKEGKLYAKKECNEDCNFKELILENHYNTYASAKWTHNGGEMFVALNQKGIPVRGKKTKKEQKTAHFLPMAIT
modifications: Human KGF
B3: T-KGF: SEQ ID NO: 1 peptide C-terminal linked to N-terminal of KGF via GG linker (protein)
chain: NGSLNTHLAPILGGCNDMTPEQMATNVNCSSPERHTRSYDYMEGGDIRVRRLFCRTQWYLRIDKRGKVKGTQEMKNNYNIMEIRTVAVGIVAIKGVESEFYLAMNKEGKLYAKKECNEDCNFKELILENHYNTYASAKWTHNGGEMFVALNQKGIPVRGKKTKKEQKTAHFLPMAIT
modifications: Synthetic Fusion protein of T-KGF

What was measured:
[1] = Skin penetrability of growth factor fusion proteins (Franz glass cell, ELISA); format: in vitro ADME, porcine; conditions: for Penetrated amount (%): 2 μg, 16 hours; for skin penetrability compared with the unfused protein: summary of Tables 7, 12, 16, 20, 24
Procedure: (§1) Specifically, porcine skin (thickness: 0.7 mm, Medikinetics) was placed between upper and lower ends of Franz glass cell (standard diameter: 9 mm, Receiver 5 mL, Permegear), and TBS (50 mM Tris pH 7.5, 150 mM NaCl) including 1% BSA and 0.01% Tween 20 was prepared. Then, 500 μL of the TBS was applied to the upper end of the glass cell (Donor chamber), and 5 mL of the TBS was applied to the lower end of the glass cell, (Receiver chamber). Subsequently, 2 μg of PDGFa or T-PDGFa was applied to the upper end of the glass cell, followed by reaction for 16 hours. Then, a concentration of PDGFa or T-PDGFa was quantitatively analyzed using the ELISA kit (R&D Systems), and a relative amount of T-PDGFa to PDGFa was calculated as a penetrated amount (Table 7).
Specifically, porcine skin (thickness: 0.7 mm, Medikinetics) was placed between upper and lower ends of Franz glass cell (standard diameter: 9 mm, Receiver 5 mL, Permegear), and TBS (50 mM Tris pH 7.5, 150 mM NaCl) including 1% BSA and 0.01% Tween 20 was prepared. Then, 500 μL of the TBS was applied to the upper end of the glass cell (Donor chamber), and 5 mL of the TBS was applied to the lower end of the glass cell, (Receiver chamber).
as §1, with “IGF-1” for “PDGFa”, “T-IGF-1” for “T-PDGFa”, “16).” for “7).”
as §1, with “KGF” for “PDGFa”, “T-KGF” for “T-PDGFa”, “20).” for “7).”
as §1, with “Tβ4” for “PDGFa”, “T-Tβ4” for “T-PDGFa”, “24).” for “7).”

dermal papilla cells = assay: Hair follicle stem cell proliferation: dermal papilla cells, Cell Counter Kit-8; format: cell-based; conditions: for Proliferation (%): one day, control = 100; for cell proliferation effect compared with the unfused protein: dermal papilla cells
Procedure: (§2) Specifically, dermal papilla cells were inoculated onto a 96-well plate and cultured for 24 hours to obtain cultures at a density of 6,000 cells per well. The cultures were washed with PBS and cultured in a serum-free DMEM medium for one day. The cells were washed with PBS again and cultured in a serum-free DMEM medium supplemented with 1 ng/mL T-PDGFa or PDGFa for one day. The cultures were obtained therefrom and a difference between proliferated amounts of cells was quantitively analyzed using the Cell Counter Kit-8 (Dojindo). Here, dermal papilla cells cultured in a serum-free DMEM medium without T-PDGFa or PDGFa were used as a control (Table 6).
Specifically, dermal papilla cells were inoculated onto a 96-well plate and cultured for 24 hours to obtain cultures at a density of 6,000 cells per well. The cultures were washed with PBS and cultured in a serum-free DMEM medium for one day. […] The cultures were obtained therefrom and a difference between proliferated amounts of cells was quantitively analyzed using the Cell Counter Kit-8 (Dojindo).
as §2, with “T-IGF-1” for “T-PDGFa”, “IGF-1” for “PDGFa”, “15).” for “6).”
as §2, with “10” for “1”, “T-KGF” for “T-PDGFa”, “KGF” for “PDGFa”, “19).” for “6).”
as §2, with “10” for “1”, “T-Tβ4” for “T-PDGFa”, “Tβ4” for “PDGFa”, “23).” for “6).”

Row | Molecule | Penetrated amount (%) ([1]; relative to VEGF) | skin penetrability compared with the unfused protein [1] | Proliferation (%) (dermal papilla cells; 1 ng/mL T-VEGF or VEGF) | cell proliferation effect compared with the unfused protein (dermal papilla cells) | Penetrated amount (%) ([1]; relative to KGF) | Proliferation (%) (dermal papilla cells; 10 ng/mL T-KGF or KGF)
1 | B1 | 295 ± 21% | about three times higher | 310 ± 20% | same level | – | –
2 | B2 | – | – | – | – | 100 ± 18% | 360 ± 35%
3 | B3 | – | about three times higher | – | same level | 310 ± 12% | 270 ± 15%
